Article PMC2174365 (The Journal of Cell Biology, 2000)

Tests used:
[1] = molecular target: microtubules (taxol-stabilized; polymer of alpha- and beta-tubulin); test: cell-based or functional assay
[2] = molecular target: the molecule itself; test: cross-linking

B1: Cys344 Cys-light K560-GFP (neck coiled-coil mutant Tyr344Cys) (domain or fragment, human, UniProt P33176 1-560, looked up)
chain: MADLAESNIKVMCRFRPLNESEVNRGDKYIAKFQGEDTVVIASKPYAFDRVFQSSTSQEQVYNDAAKKIVKDVLEGYNGTIFAYGQTSSGKTHTMEGKLHDPEGMGIIPRIVQDIFNYIYSMDENLEFHIKVSYFEIYLDKIRDLLDVSKTNLSVHEDKNRVPYVKGATERFVSSPDEVMDTIDEGKSNRHVAVTNMNEHSSRSHSIFLINVKQENTQTEQKLSGKLYLVDLAGSEKVSKTGAEGAVLDEAKNINKSLSALGNVISALAEGSTYVPYRDSKMTRILQDSLGGNARTTIVICCSPSSYNESETKSTLLFGQRAKTIKNTVSVNVELTAEQWKKKCEKEKEKNKILRNTIQWLENELNRWRNGETVPIDEQFDKEKANLEAFTVDKDITLTNDKPATAIGVIGNFTDAERRKAEEEIAKLYKQLDDKDEEINQQSQLVEKLKTQMLDQEELLASTRRDQDNMQAELNRLQAENDASKEEVKEVLQALEELAVNYDQKSQEVEDKTKEYELLSDELNQKSATLASIDAELQKLKEMTNHQKKRAAEMMASLLK
[1]
  Km(MT) of the microtubule-stimulated ATPase, with 200 μM DTNB: 1.24 μM tubulin
  Km(MT) of the microtubule-stimulated ATPase, without DTNB: 0.84 μM tubulin
[2]
  stoichiometry N: 2

B2: Cys337/Cys344 Cys-light K560-GFP (neck coiled-coil double mutant Ala337Cys/Tyr344Cys) (domain or fragment, human, UniProt P33176 1-560, looked up)
chain: MADLAESNIKVMCRFRPLNESEVNRGDKYIAKFQGEDTVVIASKPYAFDRVFQSSTSQEQVYNDAAKKIVKDVLEGYNGTIFAYGQTSSGKTHTMEGKLHDPEGMGIIPRIVQDIFNYIYSMDENLEFHIKVSYFEIYLDKIRDLLDVSKTNLSVHEDKNRVPYVKGATERFVSSPDEVMDTIDEGKSNRHVAVTNMNEHSSRSHSIFLINVKQENTQTEQKLSGKLYLVDLAGSEKVSKTGAEGAVLDEAKNINKSLSALGNVISALAEGSTYVPYRDSKMTRILQDSLGGNARTTIVICCSPSSYNESETKSTLLFGQRAKTIKNTVSVNVELTCEQWKKKCEKEKEKNKILRNTIQWLENELNRWRNGETVPIDEQFDKEKANLEAFTVDKDITLTNDKPATAIGVIGNFTDAERRKAEEEIAKLYKQLDDKDEEINQQSQLVEKLKTQMLDQEELLASTRRDQDNMQAELNRLQAENDASKEEVKEVLQALEELAVNYDQKSQEVEDKTKEYELLSDELNQKSATLASIDAELQKLKEMTNHQKKRAAEMMASLLK
[1]
  Km(MT) of the microtubule-stimulated ATPase, with 200 μM DTNB: 1.51 μM tubulin
  Km(MT) of the microtubule-stimulated ATPase, without DTNB: 1.19 μM tubulin

B3: Cys337 Cys-light K560-GFP (neck coiled-coil mutant Ala337Cys) (domain or fragment, human, UniProt P33176 1-560, looked up)
chain: MADLAESNIKVMCRFRPLNESEVNRGDKYIAKFQGEDTVVIASKPYAFDRVFQSSTSQEQVYNDAAKKIVKDVLEGYNGTIFAYGQTSSGKTHTMEGKLHDPEGMGIIPRIVQDIFNYIYSMDENLEFHIKVSYFEIYLDKIRDLLDVSKTNLSVHEDKNRVPYVKGATERFVSSPDEVMDTIDEGKSNRHVAVTNMNEHSSRSHSIFLINVKQENTQTEQKLSGKLYLVDLAGSEKVSKTGAEGAVLDEAKNINKSLSALGNVISALAEGSTYVPYRDSKMTRILQDSLGGNARTTIVICCSPSSYNESETKSTLLFGQRAKTIKNTVSVNVELTCEQWKKKYEKEKEKNKILRNTIQWLENELNRWRNGETVPIDEQFDKEKANLEAFTVDKDITLTNDKPATAIGVIGNFTDAERRKAEEEIAKLYKQLDDKDEEINQQSQLVEKLKTQMLDQEELLASTRRDQDNMQAELNRLQAENDASKEEVKEVLQALEELAVNYDQKSQEVEDKTKEYELLSDELNQKSATLASIDAELQKLKEMTNHQKKRAAEMMASLLK
[1]
  Km(MT) of the microtubule-stimulated ATPase, with 200 μM DTNB: 1.59 μM tubulin
  Km(MT) of the microtubule-stimulated ATPase, without DTNB: 1.2 μM tubulin
[2]
  stoichiometry N: 2
